We go through 2 molecules from patent US20030036699A1, “Methods and systems which use annexin for bioprofiling body lumen” (IMETRx, Inc., priority 2001, published 2003).

This experiment concerns injured iliac vessel (arterial lesions). In words: Tracer uptake by autoradiography of harvested aorta/iliac in balloon-injured, cholesterol-fed rabbits. The class given is in vivo, rabbit. To be noted: for Figure of Merit (FOM): FOM=3(AUR)(PUR)(PBR); for Peak Uptake Ratio (PUR): peak lesion uptake vs uninjured zone, autoradiograph after single IV tracer dose; for Average Uptake Ratio (AUR): ratio of uptake in injured vs uninjured iliac vessel, autoradiograph about 2.5 h after single IV tracer dose. The protocol: Twenty-one adult male rabbits (weighing 3-4 kg at the time of tracer administration) were each were fed a high cholesterol, high fat diet for one week. Following one week of feeding, the rabbits were heparinized, anesthetized with ketamine HCI (25 mg/kg, IM) and medetomidine (0.5 mg/kg, IM), and underwent a left carotid arteriotomy. A 3-4F Fogarty catheter was advanced through the arteriotomy under fluoroscopic guidance into the right iliac artery. The Fogarty balloon was inflated with 0.4-0.75 ml of contrast media (to assist with localization by fluoroscopy) and withdrawn to the level of diaphragm. The balloon was deflated, the catheter returned to the distal iliac under fluoroscopic guidance, and the process repeated. There were six repetitions of the procedure. The neck incision was closed, and the animals received Baytril (5 mg IM) for 3 days following surgery to minimize infection. The animals were allowed to recover for four additional weeks while the high fat/high cholesterol diet was continued. The rabbits were divided into seven groups of […] each. On the day of study, a blood sample was drawn to measure lipids (cholesterol), and two groups of three animals received a single tracer dose intravenously via a marginal ear vein. The first group of three rabbits received annexin V-^99mTc.
Two hours after the radiopharmaceutical was administered, the animals were injected with Evans blue to identify the areas of injury an re-endothelialized aorta and iliac vessel. Thirty minutes later, the animals were anesthetized with sodium pentothal (35 mg/kg, IV) and, a thoracotomy and a midline laporotomy incision were performed. The left ventricle was identified, a trocar placed in the chamber, and a cannula placed in the abdominal aorta. The rabbit was partially exsanguinated, followed by infusion of 100 mL lactated Ringer's solution, and subsequently perfused with 0.4% paraformaldehyde (PFA) for about 5 min at about 100 mmHg pressure.
Following euthanasia, the aorta was harvested, photographed (SONY Mavica) and autoradiographed (Molecular Dynamics). An aliquot of blood and an aliquot of the injected dose were included on the plate to permit quantification. The autoradiographs were compared to the Evans Blue stained specimen to determine where the tracer had localized with reference to the injury. A ratio between uptake in the injured and uninjured iliac vessel was determined (average uptake ratio) using analysis option of ‘Image Quest^1.’ Additional ratios were created using the average counts in regions of interest placed over the area with peak uptake on the autoradiograph with each agent, and a ratio of peak uptake to the activity in an aliquot blood were determined.
To simplify the process of integrating the information, a Figure of Merit was calculated, using the formula: […]

Several values for one entry are separate records, joined by “and”; a condition that tells them apart may be missing. Equal entries are not always repeated.

On to albumin-^125I [reference compound], for which the “Figure of Merit (FOM)” value turned out to be 14; the “Peak Uptake Ratio (PUR)” value is 5.1 and 5.2; the “Average Uptake Ratio (AUR)” value worked out at 3.0. Further, the “activity in injured iliac vessel relative to uninjured site” value (animals 1 and 3) was determined as 3 fold.

B1: annexin V-^99mTc (protein, UniProt P08758 2-320, looked up)
Annexin A5: AQVLRGTVTDFPGFDERADAETLRKAMKGLGTDEESILTLLTSRSNAQRQEISAAFKTLFGRDLLDDLKSELTGKFEKLIVALMKPSRLYDAYELKHALKGAGTNEKVLTEIIASRTPEELRAIKQVYEEEYGSSLEDDVVGDTSGYYQRMLVVLLQANRDPDAGIDEAQVEQDAQALFQAGELKWGTDEEKFITIFGTRSVSHLRKVFDKYMTISGFQIEETIDRETSGNLEQLLLAVVKSIRSIPAYLAETLYYAMKGAGTDDHTLIRVMVSRSEIDLFNIRKEFRKNFATSLYSMIKGDTSGDYKKALLLLCGEDD
modifications: technetium-99m label
notes: Annexin V, a human protein (36 kD) of 319 amino acids, radiolabeled with technetium-99m as tracer
For the molecule B1, the “Figure of Merit (FOM)” value turned out to be 1701, the “Peak Uptake Ratio (PUR)” value amounted to 15 and the “Average Uptake Ratio (AUR)” value came to 8.4. The “localization of tracer on the autoradiograph relative to lesion sites” value (autoradiograph compared with Evans Blue stained specimen) was “striking correlation between lesion sites and localization of annexin”. The “Peak to Blood Ratio (PBR)” value (peak lesion uptake vs activity in an aliquot of blood) is 4.5.
